# In PMC5146914:
# Assay: circular dichroism
# Conditions: 10 mM PBS; pH 7.4; 25 °C; 50-800 uM
row,SMILES,helicity [rel %]
1,CC(=O)N[C@H]1CCCCC[S@@](=O)C[C@@H](C(N)=O)NC(=O)[C@H](C)NC(=O)[C@H](Cc2ccccc2)NC(=O)[C@H](C)NC1=O,92
2,CC(=O)N[C@H]1CCCCC[S@@](=O)C[C@@H](C(N)=O)NC(=O)[C@H](C)NC(=O)CNC(=O)[C@H](C)NC1=O,54
3,CC(=O)N[C@H]1CCCCC[S@@](=O)C[C@@H](C(N)=O)NC(=O)[C@H](CCC(=O)O)NC(=O)[C@H](C)NC(=O)[C@H](CCCCN)NC1=O,31
4,CC(=O)N[C@H]1CCCCC[S@@](=O)C[C@@H](C(N)=O)NC(=O)[C@H](C)NC(=O)[C@H](C)NC(=O)[C@H](C)NC1=O,100
5,CC(=O)N[C@H]1CCCCC[S@@](=O)C[C@@H](C(N)=O)NC(=O)[C@H](C)NC(=O)[C@H](CCC(N)=O)NC(=O)[C@H](C)NC1=O,93
6,CC(=O)N[C@H]1CCCCC[S@@](=O)C[C@@H](C(N)=O)NC(=O)[C@H](C)NC(=O)[C@H](CO)NC(=O)[C@H](C)NC1=O,65
7,CC[C@H](C)[C@@H]1NC(=O)[C@H](C)NC(=O)[C@@H](NC(C)=O)CCCCC[S@@](=O)C[C@@H](C(N)=O)NC(=O)[C@H](C)NC1=O,86
